This passage reports protein stability index results from the supplement of paper PMC10567573.

B1: EPB41L3 (parent)
chain: KKFLTLGSKFRYSGRTQAQTRRAS
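Note: lentivirally expressed fusions sorted by FACS into six bins by GFP to DsRed ratio, PSI derived from sequencing read proportions per bin multiplied by bin number.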

In this data set the parent is B1. The data set can be described thus: protein stability index of a GFP-peptide fusion (GPS, HEK-293T) (PSI 1-6); higher = more stable. The note with it: c terminus: a fixed tail appended.
For the variant KKFLTLGSKFRYSGRTHAQTRRAS [Q17H], the protein stability index is 3.25.
Under KKFLTLGSKFRYSGRTLAQTRRAS [Q17L] stands 2.77; under KKFLTLGSKFRYSGRTNAQTRRAS [Q17N], 2.01; under KKFLTLGSKFRYSGRTAAQTRRAS [Q17A], 2.32.
As to KKFLTLGSKFRYSGRTKAQTRRAS [Q17K], the protein stability index stood at 2.11.
Under KKFLTLGSKFRYSGRTRAQTRRAS [Q17R] stands 2.95; under KKFLTLGSKFRYSGRTDAQTRRAS [Q17D], 2.95; under KKFLTLGSKFRYSGRTVAQTRRAS [Q17V], 2.24.
Under KKFLTLGSKFRYSGRTSAQTRRAS [Q17S] stands 2.01; under KKFLTLGSKFRYSGNTQAQTRRAS [R15N], 2.77.
Under KKFLTLGSKFRYSGITQAQTRRAS [R15I] stands 2.19; under KKFLTLGSKFRYSGQTQAQTRRAS [R15Q], 3.3.
Regarding KKFLTLGSKFRYSGSTQAQTRRAS [R15S], the protein stability index turned out to be 2.53.
Under KKFLTLGSKFRYSGTTQAQTRRAS [R15T] stands 3.4; under KKFLTLGSKFRYSGWTQAQTRRAS [R15W], 2.05.
For the variant KKFLTLGSKFRYSGKTQAQTRRAS [R15K], the protein stability index was 2.85.
Under KKFLTLGSKFRYSGETQAQTRRAS [R15E] stands 2.89; under KKFLTLGSKFRYSGGTQAQTRRAS [R15G], 2.33.
The result for KKFITLGSKFRYSGRTQAQTRRAS [L4I] reads 2.56; that for KKFHTLGSKFRYSGRTQAQTRRAS [L4H], 3.44; that for KKFQTLGSKFRYSGRTQAQTRRAS [L4Q], 2.38.
Under KKFKTLGSKFRYSGRTQAQTRRAS [L4K] stands 3.33; under KKFETLGSKFRYSGRTQAQTRRAS [L4E], 2.85.
Take KKFLTPGSKFRYSGRTQAQTRRAS [L6P]: the protein stability index was found to be 3.57.
The result for KKFLTMGSKFRYSGRTQAQTRRAS [L6M] reads 2.64; that for KKFLTEGSKFRYSGRTQAQTRRAS [L6E], 4.08; that for KKFLTQGSKFRYSGRTQAQTRRAS [L6Q], 3.97.
Regarding KKFLTNGSKFRYSGRTQAQTRRAS [L6N], the protein stability index turned out to be 3.44.
The result for KKFLTAGSKFRYSGRTQAQTRRAS [L6A] reads 4.31.
Under KKFLTTGSKFRYSGRTQAQTRRAS [L6T] stands 3.88; under KKFLTLGSKFCYSGRTQAQTRRAS [R11C], 3.96.
The result for KKFLTLGSKFVYSGRTQAQTRRAS [R11V] reads 3.17.
Take KKFLTLGSKFPYSGRTQAQTRRAS [R11P]: the protein stability index was 3.08.
The result for KKFLTLGSKFFYSGRTQAQTRRAS [R11F] reads 2.48.
Under KKFLTLGSKFAYSGRTQAQTRRAS [R11A] stands 3.11; under KKFLTLGSKFIYSGRTQAQTRRAS [R11I], 2.89; under KKFLTLGSKFGYSGRTQAQTRRAS [R11G], 3.57.
The result for KKFLTLGSKFHYSGRTQAQTRRAS [R11H] reads 3.7; that for KKFLTLGSKFDYSGRTQAQTRRAS [R11D], 4.24.
Consider KKFLTLGSKFTYSGRTQAQTRRAS [R11T], for which the protein stability index worked out at 3.6.
Under KDFLTLGSKFRYSGRTQAQTRRAS [K2D] stands 2.44; under KPFLTLGSKFRYSGRTQAQTRRAS [K2P], 2.84.
Under KHFLTLGSKFRYSGRTQAQTRRAS [K2H] stands 2.4.
KAFLTLGSKFRYSGRTQAQTRRAS [K2A]: the protein stability index turned out to be 2.14.
The result for KIFLTLGSKFRYSGRTQAQTRRAS [K2I] reads 2.54.
The result for KLFLTLGSKFRYSGRTQAQTRRAS [K2L] reads 1.57; that for KRFLTLGSKFRYSGRTQAQTRRAS [K2R], 4.02; that for KKFLTLGSKFRYSGRTQAQTRRAR [S24R], 3.68.
For the variant KKFLTLGSKFRYSGRTQAQTRRAH [S24H], the protein stability index turned out to be 2.25.
Under KKFLTLGSKFRYSGRTQAQTRRAP [S24P] stands 2.57; under KKFLTLGSKFRYSGRTQAQTRRAY [S24Y], 2.66.
The result for KKFLTLGSKFRYSGRTQAQTRRAQ [S24Q] reads 2.51.
In the case of KKFLTLGSKFRYSGRTQAQTRRAG [S24G], the protein stability index is 2.65.
Consider KKFLTLGSKFRYSGRTQAQTRRAL [S24L], for which the protein stability index worked out at 2.
Under KKFLTLGSKFRYSGRTQAQTRRAC [S24C] stands 2.1; under KKFLTLGSKFRYSGRTQAQTRRAN [S24N], 2.83; under KKFLTLGSKFRYSGRTQAQTRRAV [S24V], 2.15.
For the variant KKFLTLGSKFRYSGRTQAQTRRAK [S24K], the protein stability index is 3.64.
Take KKFLTLGSKFRYSGRTQAQTNRAS [R21N]: the protein stability index was determined as 2.1.
With KKFLTLGSKFRYSGRTQAQTVRAS [R21V], the protein stability index stood at 3.27.
Under KKFLTLGSKFRYSGRTQAQTSRAS [R21S] stands 3.24; under KKFLTLGSKFRYSGRTQAQTYRAS [R21Y], 2.48; under KKFLTLGSKFRYSGRTQAQTDRAS [R21D], 2.69.
Under KKFLTLGSKFRYSGRTQAQTIRAS [R21I] stands 2.16; under KKFLTLGSKYRYSGRTQAQTRRAS [F10Y], 3.21; under KKFLTLGSKIRYSGRTQAQTRRAS [F10I], 3.63.
The result for KKFLTLGSKQRYSGRTQAQTRRAS [F10Q] reads 3.88; that for KKFLTLGSKLRYSGRTQAQTRRAS [F10L], 4.09; that for KKFLTLGSKHRYSGRTQAQTRRAS [F10H], 4.22.
Take KKFLTLGSKCRYSGRTQAQTRRAS [F10C]: the protein stability index stood at 3.11.
Under KKFLTLGSKMRYSGRTQAQTRRAS [F10M] stands 3.59.
For the variant KKFLTLGSKWRYSGRTQAQTRRAS [F10W], the protein stability index worked out at 2.77.
Regarding KKFLTLGSKFRRSGRTQAQTRRAS [Y12R], the protein stability index came out at 4.02.
The result for KKFLTLGSKFRFSGRTQAQTRRAS [Y12F] reads 2.6.
Under KKFLTLGSKFRMSGRTQAQTRRAS [Y12M] stands 3.9; under KKFLTLGSKFRKSGRTQAQTRRAS [Y12K], 3.01; under KKFLTLGSKFRTSGRTQAQTRRAS [Y12T], 3.96.
Under KKFLPLGSKFRYSGRTQAQTRRAS [T5P] stands 2.67; under KKFLYLGSKFRYSGRTQAQTRRAS [T5Y], 1.88.
As for KKFLKLGSKFRYSGRTQAQTRRAS [T5K], the protein stability index came out at 3.39.
As for KKFLELGSKFRYSGRTQAQTRRAS [T5E], the protein stability index worked out at 2.96.
Under KKFLILGSKFRYSGRTQAQTRRAS [T5I] stands 2.27; under KKFLTLGSIFRYSGRTQAQTRRAS [K9I], 2.6; under KKFLTLGSVFRYSGRTQAQTRRAS [K9V], 2.23.
As for KKFLTLGSYFRYSGRTQAQTRRAS [K9Y], the protein stability index is 2.85.
Regarding KKFLTLGSAFRYSGRTQAQTRRAS [K9A], the protein stability index worked out at 1.96.
The result for KKFLTLGSNFRYSGRTQAQTRRAS [K9N] reads 1.99; that for KKFLTLGSEFRYSGRTQAQTRRAS [K9E], 1.34; that for KKFLTLGSDFRYSGRTQAQTRRAS [K9D], 2.01.
For KKFLTLQSKFRYSGRTQAQTRRAS [G7Q], the protein stability index came to 2.85.
The result for KKFLTLVSKFRYSGRTQAQTRRAS [G7V] reads 2.26; that for KKFLTLSSKFRYSGRTQAQTRRAS [G7S], 3.04; that for KKFLTLWSKFRYSGRTQAQTRRAS [G7W], 1.52.
Consider KKFLTLASKFRYSGRTQAQTRRAS [G7A], for which the protein stability index turned out to be 2.95.
